Tested on: MS2 coat protein
Assay: apparent KD of MS2 coat protein; designed switch direction (-1 OFF switch, 1 ON switch): -1; higher = weaker reporter binding
In short: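 The buffer was Tris-HCl pH 7.5 with KCl, MgCl2, BSA, DTT, tRNA and Tween-20. In it, SNAP-549-labelled MS2 coat protein was titrated in doubling steps from 0.7 or 1.5 nM to 3 µM over chip-bound RNA switches transcribed by stalled E. coli RNA polymerase on Illumina chips. Apparent KD is the per-design median over clusters of curve fits to normalised fluorescence.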

[1] = Eterna round: R95, input ligand: FMN 200 uM
[2] = Eterna round: R95, input ligand: microRNA oligo, concentration not stated
[3] = Eterna round: R95, input ligand: none
[4] = input ligand: microRNA oligo, concentration not stated

AUAAUUUAAGUGAGGAUAUACCUAUGGAAACAUAGGUAGAAGGCACAUGAGGAUCACCCAUGUUCCUAUACAAA [Fiskers BMX 4 - 1] (puzzle: Brourd's mod of Exclusion 4)
apparent KD of MS2 coat protein [1]: 16.5 nM | apparent KD of MS2 coat protein [2]: 12.7 nM | apparent KD of MS2 coat protein [3]: 9.08 nM

AUAAUUUAAGUGAGGAUAUACCUAUGGAAACAUAGGUAGAAGGCACAUGAGGAUCACCCAUGUUUUUACACAAA [Fiskers BMX 4 - 2] (puzzle: Brourd's mod of Exclusion 4)
apparent KD of MS2 coat protein [2]: 18.1 nM

AUACCACGAGGAUAUCGUCUAUAUUACAUGAGGAUCACCCAUGUUAUAUUUGUAAUGUUUCGAGAAGGCGUGUUUU [JR_E5_Sub081] (puzzle: Exclusion 5)
apparent KD of MS2 coat protein [2]: 14.4 nM

AUACCAUGCCGCCUAAUAGCUUUUUGCUCGUCUUAUAAAACAUGAGGAUCACCCAUGUAAAACAUGUGGCGUGACCC [Maridi] (Eterna round: R96, puzzle: Sensor v3, turn-off variant 2)
apparent KD of MS2 coat protein (input ligand: FMN 200 uM): 422 nM | apparent KD of MS2 coat protein [4]: 52.9 nM | apparent KD of MS2 coat protein (input ligand: none): 329 nM

AUACCAUGCCGCCUAAUAGCUUUUUGCUCGUCUUAUAAAACAUGAGGAUCACCCAUGUAAAACAUGUGGCGUGACCC [Maridi] (puzzle: Sensor v3, turn-off variant 2)
apparent KD of MS2 coat protein [1]: 163 nM | apparent KD of MS2 coat protein [2]: 12.5 nM | apparent KD of MS2 coat protein [3]: 97.4 nM

AUACCCAGAGGAUAUGCCGCUGGGUGCCCUCUGCAUAAAACACUUGAGGAUCACCCAAGUAGAAGGCUGGGCUC [Leiseses] (Eterna round: R97, puzzle: Exclusion 2)
apparent KD of MS2 coat protein (input ligand: FMN 200 uM): 173 nM | apparent KD of MS2 coat protein (input ligand: none): 78.1 nM

AUAGCUCGUGUUAGGAUAUCCGCAUAUUUUACAUAGGAGAAGGAACAUGAGGAUCACCCAUGUAAUAGAAAAGA [Maenri] (puzzle: Brourd's mod of Exclusion 4)
apparent KD of MS2 coat protein [1]: 138 nM | apparent KD of MS2 coat protein [2]: 101 nM | apparent KD of MS2 coat protein [3]: 74.7 nM

AUAUAGAUAGUCAGGAUAUACUAGUGAUAACAGUAGUAGAAGGGACAUGAGGAUCACCCAUGUAGAUACUGCAC [Brourd's EX4 #2] (Eterna round: R97, puzzle: Brourd's mod of Exclusion 4)
apparent KD of MS2 coat protein (input ligand: FMN 200 uM): 22.2 nM | apparent KD of MS2 coat protein (input ligand: none): 21.2 nM

AUAUAGCGAGGAUAUACAUGAGGAUCACCCAUGUGGUAGUAGAUACGGUAGAGAUAGUGUAGAAGGCGCUAUGA [EX3 #9] (Eterna round: R97, puzzle: Exclusion 3)
apparent KD of MS2 coat protein (input ligand: FMN 200 uM): 226 nM | apparent KD of MS2 coat protein (input ligand: none): 233 nM

AUAUAGUCAGGAUAUCGAAAUAUAUAUUAAUAUAUAUAAUACGAGAAGGGACAUGAGGAUCACCCAUGUAGUAA [JR_Exclusion4)Sub001] (puzzle: Exclusion 4)
apparent KD of MS2 coat protein [2]: 23.7 nM

AUAUUGUGAGGAUAUGAACUUACUAUCGAAAGAUACUAAGUUCAGAAGGCACAUGAGGAUCACCCAUGUUUCUC [Long static hairpin v19] (Eterna round: R97, puzzle: Exclusion 4)
apparent KD of MS2 coat protein (input ligand: FMN 200 uM): 664 nM | apparent KD of MS2 coat protein (input ligand: none): 76.1 nM

AUAUUGUGAGGAUAUGAACUUAGUAUGGAAAGAUACUAAGUUCAGAAGGCACAUGAGGAUCACCCAUGUUUCUC [Long static hairpin v12] (Eterna round: R97, puzzle: Exclusion 4)
apparent KD of MS2 coat protein (input ligand: FMN 200 uM): 34 nM | apparent KD of MS2 coat protein (input ligand: none): 26.9 nM

AUAUUUAGCUUUUUGUGAAACAUGAGGAUCACCCAUGUCCUCAUAACUGGACAUUUAAGUCUAGAAGCUCGUCUUAU [Last end dangle 3] (Eterna round: R97, puzzle: Sensor, turn-off variant 1)
apparent KD of MS2 coat protein (input ligand: FMN 200 uM): 475 nM | apparent KD of MS2 coat protein (input ligand: none): 553 nM

AUCAGCUCGUCAGGAUAUACAUGAGGAUCACCCAUGUGAUCAAUAGCAGCUUCGGCUGCAUUAAUGUAGAAGGGACGAGCUGAU [ENG2/5-B3] (Eterna round: R96, puzzle: Exclusion NG 2)
apparent KD of MS2 coat protein (input ligand: FMN 200 uM): 175 nM | apparent KD of MS2 coat protein [4]: 75 nM | apparent KD of MS2 coat protein (input ligand: none): 407 nM

AUCAGCUCGUGAGGAUAUACAUGAGGAUCACCCAUGUGAUCAAUAGCAGCUUCGGCUGCAUACAUGUAGAAGGCACGAGCUGAU [ENG2/6-A3] (Eterna round: R96, puzzle: Exclusion NG 2)
apparent KD of MS2 coat protein (input ligand: FMN 200 uM): 95.6 nM | apparent KD of MS2 coat protein [4]: 19.9 nM | apparent KD of MS2 coat protein (input ligand: none): 135 nM

AUCAGUCUAGAGGAUAUGCUGGAUUAAUAUCUGGCAGAAGGCUGGACAUGAGGAUCACCCAUGUAAAUACUACC [Omei Ex6 A4] (Eterna round: R97, puzzle: Exclusion 6)
apparent KD of MS2 coat protein (input ligand: FMN 200 uM): 156 nM | apparent KD of MS2 coat protein (input ligand: none): 55 nM

AUCAUGCAGUAGGAUAUCGAUCCACAAUAUGAACGAGAAGGGCUGACAUGAGGAUCACCCAUGUGCGUCCGAAG [Becebe] (Eterna round: R97, puzzle: Exclusion 6)
apparent KD of MS2 coat protein (input ligand: FMN 200 uM): 16.7 nM | apparent KD of MS2 coat protein (input ligand: none): 19 nM

AUCAUGUGAGGAUAUGUGAUCAACCUUCUAUAUAGAUGAUGACAGAAGGCACAUGAGGAUCACCCAUGUAGAUC [Ex4 - 3 - 20] (puzzle: Exclusion 4)
apparent KD of MS2 coat protein [2]: 45.1 nM

AUCCGGCAUGUAGGAUAUGGAUCCGAUUAGGAUCCAGAAGGACAUGAGGAUCACCCAUGUACAUGUAAACAGUCAUCACCGGAC [salish99_ExNG1_r04_201] (Eterna round: R96, puzzle: Exclusion NG 1)
apparent KD of MS2 coat protein (input ligand: FMN 200 uM): 462 nM | apparent KD of MS2 coat protein [4]: 50.2 nM | apparent KD of MS2 coat protein (input ligand: none): 67.3 nM

AUCGUGCAGCAAAGCUGUACGAGUACAUGAGGAUCACCCAUGUAGGAUAUGGUACGCAAAGCGUGCUAGAAGGAUAUGAGAUUA [Mat - Exclusion NG 3 - Mod of JL - D97] (Eterna round: R96, puzzle: Exclusion NG 3)
apparent KD of MS2 coat protein (input ligand: FMN 200 uM): 38.1 nM | apparent KD of MS2 coat protein [4]: 32.6 nM | apparent KD of MS2 coat protein (input ligand: none): 57.7 nM

AUCGUGCAGCUUUGCUGUACGAGUACAUGAGGAUCACCCAUGUAGGAUAUGGUACGCUUUGCGUGCCAGAAGGACGUGCGUUAG [salish99_ExNG3_r04_003] (Eterna round: R96, puzzle: Exclusion NG 3)
apparent KD of MS2 coat protein (input ligand: FMN 200 uM): 63.2 nM | apparent KD of MS2 coat protein [4]: 34.3 nM | apparent KD of MS2 coat protein (input ligand: none): 43.7 nM

AUCGUGUGAGGAUAUCGAUGUUGGACGUCUAGGUCUAAGCGCGAGAAGGCACAUGAGGAUCACCCAUGUAAUGG [jl-ex4-4.27 ViennaUCT mod] (Eterna round: R97, puzzle: Exclusion 4)
apparent KD of MS2 coat protein (input ligand: FMN 200 uM): 249 nM | apparent KD of MS2 coat protein (input ligand: none): 910 nM

AUGGGUCCUCACGGAGCUACAUGAGGAUCACCCAUGUGGAUUGAGGAUAUCCACUGCCGACGGCUGGAGAAGGCAGUUUACUGU [Ex NG3 #94] (Eterna round: R96, puzzle: Exclusion NG 3)
apparent KD of MS2 coat protein (input ligand: FMN 200 uM): 57.5 nM | apparent KD of MS2 coat protein [4]: 36 nM | apparent KD of MS2 coat protein (input ligand: none): 49.9 nM

From the supplement of paper PMC9170038
